Reference: patent US20170298096A1 (CANIMGUIDE THERAPEUTICS, published 2017)

T1: His-tagged P3028 peptide (PGE73) (human)
T1 construct: albumin-derived peptide, in solution at 0.5 ug/mL; not shown: His-tag
T1 peptide: VFDEFKPLVEEPQNLIK


Biological target: T1, His-tagged P3028 peptide (PGE73)
Test: PEPSCAN ELISA, peptide on card
Experimental: After washing, the peroxidase substrate 2,2′-azine-di-3-ethylbenzthiazoline sulfonate (ABTS) and 2 μL of 3% H2O2 were added. The binding capacity of the mAb was measured as a color development at 405 nm (optical density, OD405). The color development was quantified with a charge-coupled device (CCD)—camera and an image processing system.
The OD405-values obtained by a CCD-camera was considered as raw data values (“rampo values,” “rampo units,” or “rampo scores”). […] First the CCD-camera made a picture of the card before peroxidase coloring and then again a picture after the peroxidase coloring. […] These values were copied into an excel file and labeled as a raw data file. One follow-up manipulation was allowed. Sometimes a well can contain an air-bubble resulting in a false-positive value. If manual inspection of the cards detect an air-bubble the value are set to 0 for that well.

Row | Binder | RAMPO Score
1 | AKLDTFFVKLSLFTER [SEQ ID NO: 268 AKLDTFFVKLSLFTER] | 466
2 | DKLDTFFVKLSLFTER [SEQ ID NO: 269 DKLDTFFVKLSLFTER] | 373
3 | EKLDTFFVKLSLFTER [SEQ ID NO: 270 EKLDTFFVKLSLFTER] | 396
4 | GKLDTFFVKLSLFTER [SEQ ID NO: 271 GKLDTFFVKLSLFTER] | 367
5 | HKLDTFFVKLSLFTER [SEQ ID NO: 272 HKLDTFFVKLSLFTER] | 428
6 | IKLDTFFVKLSLFTER [SEQ ID NO: 273 IKLDTFFVKLSLFTER] | 483
7 | LKLDTFFVKLSLFTER [SEQ ID NO: 274 LKLDTFFVKLSLFTER] | 449
8 | MKLDTFFVKLSLFTER [SEQ ID NO: 275 MKLDTFFVKLSLFTER] | 457
9 | NKLDTFFVKLSLFTER [SEQ ID NO: 276 NKLDTFFVKLSLFTER] | 445
10 | PKLDTFFVKLSLFTER [SEQ ID NO: 277 PKLDTFFVKLSLFTER] | 387
11 | QKLDTFFVKLSLFTER [SEQ ID NO: 278 QKLDTFFVKLSLFTER] | 455
12 | RKLDTFFVKLSLFTER [SEQ ID NO: 279 RKLDTFFVKLSLFTER] | 523
13 | TKLDTFFVKLSLFTER [SEQ ID NO: 280 TKLDTFFVKLSLFTER] | 493
14 | VKLDTFFVKLSLFTER [SEQ ID NO: 281 VKLDTFFVKLSLFTER] | 442
15 | KKADTFFVKLSLFTER [SEQ ID NO: 282 KKADTFFVKLSLFTER] | 427
16 | KKCDTFFVKLSLFTER [SEQ ID NO: 283 KKCDTFFVKLSLFTER] | 432
17 | KKDDTFFVKLSLFTER [SEQ ID NO: 284 KKDDTFFVKLSLFTER] | 492
18 | KKEDTFFVKLSLFTER [SEQ ID NO: 285 KKEDTFFVKLSLFTER] | 528
19 | KKFDTFFVKLSLFTER [SEQ ID NO: 286 KKFDTFFVKLSLFTER] | 393
20 | KKGDTFFVKLSLFTER [SEQ ID NO: 287 KKGDTFFVKLSLFTER] | 563
21 | KKHDTFFVKLSLFTER [SEQ ID NO: 288 KKHDTFFVKLSLFTER] | 477
22 | KKIDTFFVKLSLFTER [SEQ ID NO: 289 KKIDTFFVKLSLFTER] | 454
23 | KKKDTFFVKLSLFTER [SEQ ID NO: 290 KKKDTFFVKLSLFTER] | 386
24 | KKMDTFFVKLSLFTER [SEQ ID NO: 291 KKMDTFFVKLSLFTER] | 460

Row | Binder | RAMPO Score
25 | KKNDTFFVKLSLFTER [SEQ ID NO: 292 KKNDTFFVKLSLFTER] | 374
26 | KKQDTFFVKLSLFTER [SEQ ID NO: 293 KKQDTFFVKLSLFTER] | 473
27 | KKRDTFFVKLSLFTER [SEQ ID NO: 294 KKRDTFFVKLSLFTER] | 370
28 | KKSDTFFVKLSLFTER [SEQ ID NO: 295 KKSDTFFVKLSLFTER] | 393
29 | KKTDTFFVKLSLFTER [SEQ ID NO: 296 KKTDTFFVKLSLFTER] | 451
30 | KKVDTFFVKLSLFTER [SEQ ID NO: 297 KKVDTFFVKLSLFTER] | 377
31 | KKLATFFVKLSLFTER [SEQ ID NO: 298 KKLATFFVKLSLFTER] | 494
32 | KKLETFFVKLSLFTER [SEQ ID NO: 299 KKLETFFVKLSLFTER] | 417
33 | KKLITFFVKLSLFTER [SEQ ID NO: 300 KKLITFFVKLSLFTER] | 430
34 | KKLVTFFVKLSLFTER [SEQ ID NO: 301 KKLVTFFVKLSLFTER] | 424
35 | KKLWTFFVKLSLFTER [SEQ ID NO: 302 KKLWTFFVKLSLFTER] | 443
36 | KKLYTFFVKLSLFTER [SEQ ID NO: 303 KKLYTFFVKLSLFTER] | 422
37 | KKLDCFFVKLSLFTER [SEQ ID NO: 304 KKLDCFFVKLSLFTER] | 449
38 | KKLDMFFVKLSLFTER [SEQ ID NO: 305 KKLDMFFVKLSLFTER] | 475
39 | KKLDNFFVKLSLFTER [SEQ ID NO: 306 KKLDNFFVKLSLFTER] | 436
40 | KKLDPFFVKLSLFTER [SEQ ID NO: 307 KKLDPFFVKLSLFTER] | 427
41 | KKLDQFFVKLSLFTER [SEQ ID NO: 308 KKLDQFFVKLSLFTER] | 535
42 | KKLDRFFVKLSLFTER [SEQ ID NO: 309 KKLDRFFVKLSLFTER] | 430
43 | KKLDSFFVKLSLFTER [SEQ ID NO: 310 KKLDSFFVKLSLFTER] | 458
44 | KKLDWFFVKLSLFTER [SEQ ID NO: 311 KKLDWFFVKLSLFTER] | 418
45 | KKLDYFFVKLSLFTER [SEQ ID NO: 312 KKLDYFFVKLSLFTER] | 425
46 | KKLDTAFVKLSLFTER [SEQ ID NO: 313 KKLDTAFVKLSLFTER] | 575
47 | KKLDTIFVKLSLFTER [SEQ ID NO: 314 KKLDTIFVKLSLFTER] | 466
48 | KKLDTMFVKLSLFTER [SEQ ID NO: 315 KKLDTMFVKLSLFTER] | 467

Row | Binder | RAMPO Score
49 | KKLDTNFVKLSLFTER [SEQ ID NO: 316 KKLDTNFVKLSLFTER] | 446
50 | KKLDTPFVKLSLFTER [SEQ ID NO: 317 KKLDTPFVKLSLFTER] | 497
51 | KKLDTTFVKLSLFTER [SEQ ID NO: 318 KKLDTTFVKLSLFTER] | 481
52 | KKLDTVFVKLSLFTER [SEQ ID NO: 319 KKLDTVFVKLSLFTER] | 547
53 | KKLDTFLVKLSLFTER [SEQ ID NO: 320 KKLDTFLVKLSLFTER] | 517
54 | KKLDTFMVKLSLFTER [SEQ ID NO: 321 KKLDTFMVKLSLFTER] | 712
55 | KKLDTFQVKLSLFTER [SEQ ID NO: 322 KKLDTFQVKLSLFTER] | 511
56 | KKLDTFSVKLSLFTER [SEQ ID NO: 323 KKLDTFSVKLSLFTER] | 700
57 | KKLDTFTVKLSLFTER [SEQ ID NO: 324 KKLDTFTVKLSLFTER] | 517
58 | KKLDTFVVKLSLFTER [SEQ ID NO: 325 KKLDTFVVKLSLFTER] | 527
59 | KKLDTFFFKLSLFTER [SEQ ID NO: 326 KKLDTFFFKLSLFTER] | 358
60 | KKLDTFFGKLSLFTER [SEQ ID NO: 327 KKLDTFFGKLSLFTER] | 379
61 | KKLDTFFLKLSLFTER [SEQ ID NO: 328 KKLDTFFLKLSLFTER] | 411
62 | KKLDTFFPKLSLFTER (also called 32251) [SEQ ID NO: 329 KKLDTFFPKLSLFTER] | 456
63 | KKLDTFFRKLSLFTER [SEQ ID NO: 330 KKLDTFFRKLSLFTER] | 365
64 | KKLDTFFVRLSLFTER [SEQ ID NO: 331 KKLDTFFVRLSLFTER] | 374
65 | KKLDTFFVKASLFTER [SEQ ID NO: 332 KKLDTFFVKASLFTER] | 426
66 | KKLDTFFVKFSLFTER [SEQ ID NO: 333 KKLDTFFVKFSLFTER] | 403
67 | KKLDTFFVKGSLFTER [SEQ ID NO: 334 KKLDTFFVKGSLFTER] | 495
68 | KKLDTFFVKISLFTER [SEQ ID NO: 335 KKLDTFFVKISLFTER] | 415
69 | KKLDTFFVKMSLFTER [SEQ ID NO: 336 KKLDTFFVKMSLFTER] | 460
70 | KKLDTFFVKNSLFTER [SEQ ID NO: 337 KKLDTFFVKNSLFTER] | 365
71 | KKLDTFFVKPSLFTER [SEQ ID NO: 338 KKLDTFFVKPSLFTER] | 436
72 | KKLDTFFVKQSLFTER [SEQ ID NO: 339 KKLDTFFVKQSLFTER] | 470
